Data published in patent US20090317415A1 (UNIVERSITY COLLEGE CARDIFF CONSULTANTS, published 2009).

Biological target: T1, HLA-A*0201 expressed on T2 cells (human)
T1 construct: also called HLA-A2
Experiment: cell-based peptide binding assay on T2 cells

binding result: binds
Binder: SLLACALEV (also called Rb peptide) [Rb485-493 (Rb7) peptide]
